The target in assay [1] is Anti-CD28 Fab (SEQ ID NOs: 696, 697). In words: phage ELISA; biotinylated anti-CD28 Fab on neutravidin plate, clonal phage supernatant, anti-M13 HRP detection. (In general: ELISA stands for enzyme-linked immunosorbent assay.)
Target sequence in this assay (VH, as listed by the source, chain 1 of 2): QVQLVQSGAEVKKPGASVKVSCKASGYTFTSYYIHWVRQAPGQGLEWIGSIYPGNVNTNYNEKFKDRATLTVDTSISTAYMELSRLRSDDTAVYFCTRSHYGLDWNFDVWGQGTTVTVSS
Target sequence in this assay (VL, as listed by the source, chain 2 of 2): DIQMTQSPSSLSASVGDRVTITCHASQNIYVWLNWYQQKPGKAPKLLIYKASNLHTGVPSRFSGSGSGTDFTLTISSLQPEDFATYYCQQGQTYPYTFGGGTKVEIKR
Procedure: (§1) After panning, phage infected bacteria were plated out and colonies picked into 96 well blocks. Clonal phage was then amplified and separated from bacterial cells via centrifugation.
(§2) Clonal phage were harvested as crude supematants and screened via standard ELISAs. […] Prior to the addition of clonal phage, wells were incubated with blocking buffer and CD28 antigen or blocking buffer alone. Without washing or aspirating, clonal phage supematants were then added to the wells and incubated for a short time. Wells were then washed followed by detection of bound phage using a horse radish conjugated anti-M13 antibody. Clonal phage of interest were then sent for sequence analysis.
The target is the same in assay [2]. The assay can be described thus: phage ELISA; Fab on plate pre-incubated with CD28 antigen (competitor), clonal phage supernatant, anti-M13 HRP detection.
Target sequence in this assay (VH, as listed by the source, chain 1 of 2): as the sequence (VH, as listed by the source, chain 1 of 2) above
Target sequence in this assay (VL, as listed by the source, chain 2 of 2): as the sequence (VL, as listed by the source, chain 2 of 2) above
Procedure: as §1, §2
The target in assay [3] is T1, Anti-CD28 Fab (SEQ ID NOs: 696, 697).
T1 construct: In the phage ELISA the Fab was biotinylated and captured on neutravidin coated plates
The assay can be described thus: phage ELISA; biotinylated anti-CD28 Fab on neutravidin plate, clonal phage supernatant, anti-M13 HRP detection.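 Further: crude supernatants of single phage clones picked after panning were screened for binding.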
T1 sequence (VH, as listed by the source, chain 1 of 2): as the sequence (VH, as listed by the source, chain 1 of 2) above
T1 sequence (VL, as listed by the source, chain 2 of 2): as the sequence (VL, as listed by the source, chain 2 of 2) above
Procedure: as §1, §2

Assay [4] has the same target. The assay can be described thus: phage ELISA; Fab-coated wells pre-incubated with CD28 antigen as competitor, clonal phage supernatant, anti-M13 HRP detection.
Target sequence in this assay (VH, as listed by the source, chain 1 of 2): as the sequence (VH, as listed by the source, chain 1 of 2) above
Target sequence in this assay (VL, as listed by the source, chain 2 of 2): as the sequence (VL, as listed by the source, chain 2 of 2) above
Procedure: as §1, §2
The target in assay [5] is Anti-CD28 Fab (SEQ ID NOs: 696, 697). In words: phage ELISA as above; wells pre-incubated with CD28 antigen as competitor.
Target sequence in this assay (VH, as listed by the source, chain 1 of 2): as the sequence (VH, as listed by the source, chain 1 of 2) above
Target sequence in this assay (VL, as listed by the source, chain 2 of 2): as the sequence (VL, as listed by the source, chain 2 of 2) above
Procedure: as §1, §2
Assay [6] has the same target. In words: phage ELISA; biotinylated anti-CD28 Fab on neutravidin plate, clonal phage supernatant, anti-M13 HRP detection.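 Further: crude supernatants of single phage clones picked after panning were screened for binding.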 This is another data set of the same source.
Target sequence in this assay (VH, as listed by the source, chain 1 of 2): as the sequence (VH, as listed by the source, chain 1 of 2) above
Target sequence in this assay (VL, as listed by the source, chain 2 of 2): as the sequence (VL, as listed by the source, chain 2 of 2) above
Procedure: as §1, §2

Where no end group is shown, it is not given here.

On to YCQGHSVQYMAKCL (also called Peptide-87 library clone) [Phage-1272], for which, in assay [1], the “Phage binding ELISA, Anti-CD28 Fab signal” value was determined as 0.77. Besides, the “Phage binding ELISA, Anti-CD28 Fab signal in the presence of CD28” value in assay [2] is 0.06.

As for YCMGHSAEYMGKCL [Phage-1295], the “Phage binding ELISA, Anti-CD28 Fab signal” value in assay [3] stood at 0.64. For the same molecule, the “Phage binding ELISA, Anti-CD28 Fab signal in the presence of CD28” value in assay [4] was 0.06.

With YCDGHMDAYMSKCL [Phage-1294], in assay [3], the “Phage binding ELISA, Anti-CD28 Fab signal” value came to 0.65. Besides, the “Phage binding ELISA, Anti-CD28 Fab signal in the presence of CD28” value in assay [4] turned out to be 0.06.

YCDGHEPQYMTKCL [Phage-1290]: the “Phage binding ELISA, Anti-CD28 Fab signal” value in assay [3] stood at 0.68. Further, the “Phage binding ELISA, Anti-CD28 Fab signal in the presence of CD28” value in assay [4] is 0.1.

B1: Phage-1307 (peptide, not shown: large carriers)
peptide: YCEGHLQEYMGKCL
modifications: cysteine pairing not given here; also: fused to phage pIII protein, pIII and linker sequence not given here
notes: Tested as clonal phage supernatant
As to B1, in assay [5], the “Anti-CD28 Fab signal in the presence of CD28 (phage binding ELISA)” value came to 0.25. In assay [6], the “Anti-CD28 Fab signal (phage binding ELISA)” value stood at 0.58.

YCEGHAAVYMHKCL [Phage-1293]: the “Phage binding ELISA, Anti-CD28 Fab signal” value in assay [3] is 0.67. In addition, in assay [4], the “Phage binding ELISA, Anti-CD28 Fab signal in the presence of CD28” value is 0.09.

Turning to YCEGHMSEYMRKCL [Phage-1288], the “Phage binding ELISA, Anti-CD28 Fab signal” value in assay [3] is 0.69. Also, in assay [4], the “Phage binding ELISA, Anti-CD28 Fab signal in the presence of CD28” value worked out at 0.1.

B2: Phage-1308 (peptide, not shown: large carriers)
peptide: YCDGHVTEYMAKCL
modifications: cysteine pairing not given here; also: fused to phage pIII protein, pIII and linker sequence not given here
notes: as for B1
As for B2, the “Anti-CD28 Fab signal in the presence of CD28 (phage binding ELISA)” value in assay [5] is 0.07. In assay [6], the “Anti-CD28 Fab signal (phage binding ELISA)” value was found to be 0.58.

Consider YCEGHLPQYLAKCY [Phage-1291], for which the “Phage binding ELISA, Anti-CD28 Fab signal” value in assay [3] amounted to 0.67. Besides, the “Phage binding ELISA, Anti-CD28 Fab signal in the presence of CD28” value in assay [4] was determined as 0.08.

B3: Phage-1309 (peptide, not shown: large carriers)
peptide: YCDGHIMPYLDKCL
modifications: cysteine pairing not given here; also: fused to phage pIII protein, pIII and linker sequence not given here
notes: as for B1
Take B3: the “Anti-CD28 Fab signal in the presence of CD28 (phage binding ELISA)” value in assay [5] worked out at 0.05. In addition, in assay [6], the “Anti-CD28 Fab signal (phage binding ELISA)” value stood at 0.57.

B4: Phage-1303 (peptide, not shown: large carriers)
peptide: YCAGHALEYMQKCM
modifications: cysteine pairing not given here; also: fused to phage pIII protein, pIII and linker sequence not given here
notes: as for B1
On to B4, for which, in assay [5], the “Anti-CD28 Fab signal in the presence of CD28 (phage binding ELISA)” value is 0.08. Also, in assay [6], the “Anti-CD28 Fab signal (phage binding ELISA)” value amounted to 0.61.

For YCDGHYGAYILKCL [Phage-1292], the “Phage binding ELISA, Anti-CD28 Fab signal” value in assay [3] was 0.67. Moreover, in assay [4], the “Phage binding ELISA, Anti-CD28 Fab signal in the presence of CD28” value amounted to 0.06.

B5: Phage-1306 (peptide, not shown: large carriers)
peptide: YCDGHTPQFRAKCL
modifications: cysteine pairing not given here; also: fused to phage pIII protein, pIII and linker sequence not given here
notes: as for B1
For B5, the “Anti-CD28 Fab signal in the presence of CD28 (phage binding ELISA)” value in assay [5] was 0.07. The “Anti-CD28 Fab signal (phage binding ELISA)” value in assay [6] is 0.59.

B6: Phage-1301 (peptide, not shown: large carriers)
peptide: YCEGHLAVHMSKCL
modifications: cysteine pairing not given here; also: fused to phage pIII protein, pIII and linker sequence not given here
notes: as for B1
Turning to B6, the “Anti-CD28 Fab signal in the presence of CD28 (phage binding ELISA)” value in assay [5] worked out at 0.06. Also, in assay [6], the “Anti-CD28 Fab signal (phage binding ELISA)” value turned out to be 0.62.

B7: Phage-1300 (peptide, not shown: large carriers)
peptide: YCSGHLPMYMAKCL
modifications: cysteine pairing not given here; also: fused to phage pIII protein, pIII and linker sequence not given here
notes: as for B1
Turning to B7, the “Anti-CD28 Fab signal in the presence of CD28 (phage binding ELISA)” value in assay [5] was determined as 0.13. The “Anti-CD28 Fab signal (phage binding ELISA)” value in assay [6] is 0.62.

With YCVGHLPLYMPNCL [Phage-1289], the “Phage binding ELISA, Anti-CD28 Fab signal” value in assay [3] was determined as 0.68. In addition, in assay [4], the “Phage binding ELISA, Anti-CD28 Fab signal in the presence of CD28” value worked out at 0.11.

In the case of YCQGHAPWYMVKCL [Phage-1287], the “Phage binding ELISA, Anti-CD28 Fab signal” value in assay [3] worked out at 0.69. In addition, the “Phage binding ELISA, Anti-CD28 Fab signal in the presence of CD28” value in assay [4] was determined as 0.08.

As for YCEGHAQMYMLKCL [Phage-1298], in assay [3], the “Phage binding ELISA, Anti-CD28 Fab signal” value was 0.64. Further, the “Phage binding ELISA, Anti-CD28 Fab signal in the presence of CD28” value in assay [4] worked out at 0.06.

As for YCDGHAAWYLQKCL [Phage-1297], the “Phage binding ELISA, Anti-CD28 Fab signal” value in assay [3] was found to be 0.64. In addition, the “Phage binding ELISA, Anti-CD28 Fab signal in the presence of CD28” value in assay [4] worked out at 0.07.

Turning to YCDGHAWWYMEKCL [Phage-1296], the “Phage binding ELISA, Anti-CD28 Fab signal” value in assay [3] turned out to be 0.64. The “Phage binding ELISA, Anti-CD28 Fab signal in the presence of CD28” value in assay [4] came to 0.06.

YCEGHSRQYMEKCM [Phage-1299]: the “Phage binding ELISA, Anti-CD28 Fab signal” value in assay [3] came out at 0.63. Also, in assay [4], the “Phage binding ELISA, Anti-CD28 Fab signal in the presence of CD28” value was 0.33.

B8: Phage-1305 (peptide, not shown: large carriers)
peptide: YCQGHSELYMSKCL
modifications: cysteine pairing not given here; also: fused to phage pIII protein, pIII and linker sequence not given here
notes: as for B1
Consider B8, for which the “Anti-CD28 Fab signal in the presence of CD28 (phage binding ELISA)” value in assay [5] stood at 0.08. Further, the “Anti-CD28 Fab signal (phage binding ELISA)” value in assay [6] turned out to be 0.6.

B9: Phage-1304 (peptide, not shown: large carriers)
peptide: YCEGHIGDYIAKCL
modifications: cysteine pairing not given here; also: fused to phage pIII protein, pIII and linker sequence not given here
notes: as for B1
With B9, in assay [5], the “Anti-CD28 Fab signal in the presence of CD28 (phage binding ELISA)” value was 0.36. The “Anti-CD28 Fab signal (phage binding ELISA)” value in assay [6] was found to be 0.61.

B10: Phage-1302 (peptide, not shown: large carriers)
peptide: YCDGHIEMYMSKCM
modifications: cysteine pairing not given here; also: fused to phage pIII protein, pIII and linker sequence not given here
notes: as for B1
Take B10: in assay [5], the “Anti-CD28 Fab signal in the presence of CD28 (phage binding ELISA)” value was determined as 0.06. The “Anti-CD28 Fab signal (phage binding ELISA)” value in assay [6] was determined as 0.61.

Values taken from US20260242478A1 (published 2026).
